Measurements reported in publication PMC5513672 (Chemical research in toxicology, 2017).

Target: the molecule itself
Assay: native gel or EMSA

B1: Human recombinant ALDH2 protein (mitochondrial aldehyde dehydrogenase), untreated (enzyme, UniProt P05091 18-517, looked up)
chain: SAAATQAVPAPNQQPEVFCNQIFINNEWHDAVSRKTFPTVNPSTGEVICQVAEGDKEDVDKAVKAARAAFQLGSPWRRMDASHRGRLLNRLADLIERDRTYLAALETLDNGKPYVISYLVDLDMVLKCLRYYAGWADKYHGKTIPIDGDFFSYTRHEPVGVCGQIIPWNFPLLMQAWKLGPALATGNVVVMKVAEQTPLTALYVANLIKEAGFPPGVVNIVPGFGPTAGAAIASHEDVDKVAFTGSTEIGRVIQVAAGSSNLKRVTLELGGKSPNIIMSDADMDWAVEQAHFALFFNQGQCCCAGSRTFVQEDIYDEFVERSVARAKSRVVGNPFDSKTEQGPQVDETQFKKILGYINTGKQEGAKLLCGGGIAADRGYFIQPTVFGDVQDGMTIAKEEIFGPVMQILKFKTIEEVVGRANNSTYGLAAAVFTKDLDKANYLSQALQAGTVWVNCYDVFGAQSPFGGYKMSGSGRELGEYGLQAYTEVKTVTVKVPQKNS
B1: binds.
